Assay results: patent US20210047373A1, “BETA BARREL POLYPEPTIDES AND METHODS FOR THEIR USE” (UNIVERSITY OF WASHINGTON, priority 2018, published 2021)

Legend:
[1] = Fluorescence activation / brightness with DFHBI; type: biochemical; settings: for Fluorescence brightness, 100 nM DFHBI / Fluorescence brightness, 10 μM DFHBI: normalized 0 to 1 across all three chromophores, average ± SD of two protein concentrations
Procedure: (§1) Fluorescence binding assay. Protein-activated DFHBI fluorescence signals were measured in 96-well plate format (Corning 3650) on a Synergy neo2 plate reader (BioTek, Inc) with λex=450 nm or 460 nm and λem=500 nm or 510 nm. Binding reactions were performed at […] in PBS pH7.4 buffer. Protein concentrations were determined by 280 nm absorbance as described above. DFHBI (Lucerna, Inc) were resuspended in DMSO as instructed to make 100 mM stock and diluted in PBS to 0.5-10 μM. Approximate emission spectra were recorded for active designs from 490 to 600 nm.
(§2) Table 3A-C. Brightness and chromophore affinities of selected mFAP variants. Fluorescence brightness measurements at 10 μM (top table) and 100 nM (middle table) chromophore concentrations were normalized from 0 to 1 across all three chromophores (DFHBI, DFHBI-1T, and DFHO), and the normalized values for two protein concentrations tested for each chromophore at each chromophore concentration were averaged and standard deviations of the average computed. Reported values are the normalized averages and standard deviations of the means for each chromophore concentration and each chromophore. Reported relative densitometry values are the relative densitometry values normalized from 0 to 1 and represent how well each design expresses relative to one another in Lemo21(DE3) E. coli cultures. Thermodynamic dissociation constants (bottom table) are obtained by non-linear least squares fitting of chromophore titrations (n=1) to a single binding site isotherm, and values reported with the standard deviation of the fit. Where the obtained Kd values are below the protein concentration tested, the Kd and standard deviation of the fit are reported in parentheses. Values with “N/D” were not determined.

[2] = DFHBI titration of Ca2+-responsive mFAP variants in excess or absence of Ca2+; type: binding; settings: DFHBI titration in absence and presence of Ca^2+, n=1
From the text: FIG. 23. In vitro fluorescence characterization of Ca^2+-responsive mFAP variants. […] Normalized fluorescence values (n=1) are fit to a sigmoid equation using non-linear least squares fitting (lines). […] Error bars represent the standard deviation of the mean of 3 technical replicates. The means are fit to a sigmoid equation (for positive allostery) or inverse sigmoid equation (for negative allostery) with Hill coefficients of 1 using non-linear least squares fitting (lines) to extract reported Kd values in Table 5.
DFHBI Kd^+(in excess Ca^2+), DFHBI Kd^−(in absence of Ca^2+), and Ca^2+Kd (in excess DFHBI) are computed by fitting the normalized fluorescence readouts from titrations to a single binding site isotherm equation with Hill coefficient of 1 using non-linear least squares fitting. Standard deviations of the fit are reported. Hill coefficients are reported for fitting the titration data to a single binding site isotherm with variable Hill coefficient using non-linear least squares fitting, and the standard deviation of the fit are reported. For positive allosteric modulators, Kd^−/Kd^+ is reported, and for negative allosteric modulators, Kd^+/Kd^− is reported. […]

[3] = Chromophore titration, fit to single binding site isotherm: DFHO; settings: n=1 titration; ± SD of the fit; Table 3C
Procedure: as §2

[4] = Chromophore titration, fit to single binding site isotherm: DFHBI; settings: for Kd: n=1 titration, ± SD of the fit, Table 3C, read-out: DFHBI Kd
Procedure: as §1, §2

[5] = Chromophore titration, fit to single binding site isotherm: DFHBI-1T; settings: n=1 titration; ± SD of the fit; Table 3C
Procedure: as §2

E. coli cells = assay: Confocal imaging of E. coli expressing mFAP2a or mFAP2b labeled with chromophore; type: cell-based; settings: for Chromophore selectivity, DFHBI versus DFHBI-1T: E. coli imaging
From the text: FIG. 20: Characterization of brighter and chromophore-specific mFAP variants (mFAP2a and mFAP2b). (a) Design model of de novo β-barrel variant mFAP2b protein backbone (cartoon) bound to small molecule chromophore DFHBI (sticks). (b, c) Chemical structures of the chromophores DFHBI and DFHBI-1T, respectively. (d, e) In vitro titration of (d) DFHBI or (e) DFHBI-1T with purified mFAP2, mFAP2b, and mFAP2a proteins. mFAP2a/DFHBI, mFAP2a/DFHBI-1T, and mFAP2b/DFHBI complexes are brighter than the mFAP2/DFHBI complex. mFAP2a has higher affinity toward DFHBI compared to mFAP2b. mFAP2a binds DFHBI-1T with higher affinity than mFAP2 and the complex has brighter fluorescence than the DFHBI systems. Error bars represent standard deviation of the mean of 8 technical replicates. Shown are the non-linear least squares fits to a single binding-site isotherm equation (lines). […] (f-i) The images on the left of each panel were acquired using a laser scanning confocal fluorescence microscope and show pseudo-colored normalized fluorescence intensity values per pixel. Scale bars represent 10 microns. In the design models shown on the right of each panel the residues unique to mFAP2b (V13, M15) and residues unique to mFAP2a (A13, F15) are shown as sticks. Intermolecular hydrogen bonds to the chromophore are shown as black dotted lines. […]
It was hypothesized that a commercially-available variant of the DFHBI chromophore with a trifluoromethyl group, DFHBI-1T (FIG. 20 c), could pack into the void without causing steric clashes with nearby amino acid side-chains and could therefore fit into the mFAP2a binding pocket, while […] would result in steric clashes in the mFAP2b pocket. Studying the fluorescence of mFAP2a and mFAP2b in the presence of DFHBI-1T experimentally validated this hypothesis. […] Based on the absolute and relative quantum yields measured for these four complexes, the brightest protein-chromophore combination is mFAP2a with DFHBI-1T, with an absolute quantum yield of 12.9% (˜3.5-fold dimmer than EGFP).

[6] = Fluorescence brightness with DFHO; type: biochemical; settings: normalized 0 to 1 across all three chromophores; average ± SD of two protein concentrations
Procedure: as §2

[7] = Fluorescence brightness with DFHBI-1T; type: biochemical; settings: normalized 0 to 1 across all three chromophores; average ± SD of two protein concentrations
Procedure: as §2

fixed COS-7 cells = assay: Photostability under continuous wave imaging; type: cell-based; settings: endoplasmic reticulum, 50 μM DFHBI, frame 1 to frame 200
Procedure: FIG. 21: Super-resolution microscopy and photostability of mFAP2a and mFAP2b. (a-g) To show the application of the mFAP system in super-resolution microscopy, mFAP2a and mFAP2b were fused to a designed protein polymerizing into a filament (DHF119). (a) The maximum diameter of the DHF119 fiber fused to the 6×His-tagged mFAP2b was estimated to be ˜22 nm based on the computational design models. (b-d) The DHF119-GS-mFAP2a-6×His fiber was labeled at 5.78 μM DFHBI-1T and (e-f) the DHF119-GS-mFAP2b-6×His was labeled at 1.83 μM DFHBI. Both systems were imaged with (b,e) fluorescence widefield microscopy and (c,f) fluorescence localization microscopy. Scale bars are 1 micron. (d,g) Normalized average intensity profiles between the yellow arrowheads shown in the widefield image (black line) or localization reconstruction (grey line) estimate the diameter of the fluorescent filament. The mean and standard deviation of the mean of the full width half maximum (FWHM) values of the three intensity profiles are annotated, 11-k) Photostability of mFAP2a and mFAP2b complexes with DFHBI and DFHBI-1T compared to AcGFP1. […] Normalized fluorescence intensity images are shown for four regions of interest (ROIs). (h, i) Frames 1 (left) to 200 (right) were acquired under continuous wave imaging at 0.885 Hz (1.13 s/frame). Scale bars are 10 microns. […]

[8] = Photophysical characterization (absorbance, excitation, emission, extinction coefficient, quantum yield); type: physicochemical

| Molecule | Fluorescence brightness, 100 nM DFHBI [1] | Fluorescence brightness, 10 μM DFHBI [1] | Kd [3] [µM] | Kd [4] [µM] | Kd [5] [µM] | Chromophore selectivity, DFHBI versus DFHBI-1T (E. coli cells) | Fluorescence brightness, 100 nM DFHO [6] | Fluorescence brightness, 10 μM DFHO [6] | Fluorescence brightness, 100 nM DFHBI-1T [7] | Fluorescence brightness, 10 μM DFHBI-1T [7] | also measured |
| --- | --- | --- | --- | --- | --- | --- | --- | --- | --- | --- | --- |
| mFAP2b: SEQ ID NO:69; mFAP2.5 with V67I (protein, (1)..(1) optionally absent) MSRAAQLLPGTWQVTMTNEDGQTSQGQWHFQPRSPYTMDIVAQGTISDGRPIVGYGKATVKTPDTLDIDITYPSLGNIKAQGQITMDSPTQFKWDATTKGENDFHGRLTGTLQRQE | 0.82 ± 0.02 | 1.0 ± 0.0 | 9.01 ± 1.91 | 1.67 ± 0.08 | 42.2 ± 6.03 | pronounced chromophore selectivity | 0.01 ± 0.0 | 0.01 ± 0.0 | 0.01 ± 0.0 | 0.01 ± 0.0 | DFHBI complex brighter than DFHBI-1T complex ([1]; FIG. 20 d,e): ~70 fold; Brighter than mFAP2.4 ([1]; neutral pH): ~1.3 fold; Brighter than mFAP2.5 ([1]; neutral pH): ~1.2 fold; Brighter fluorescence than mFAP1 ([1]; protein at 10-fold higher concentration than DFHBI, peak emission 511 nanometers): approximately 4.5; Allostery between Ca^2+ and DFHBI binding [2]: no allostery; Weaker affinity for the chromophore than mFAP2 ([4]; DFHBI): ~14.1 fold; Fluorescent signal in E. coli with DFHBI-1T (E. coli cells; 10 μM chromophore): does not give a fluorescent signal |
| mFAP2a: SEQ ID NO:66 (protein, (1)..(1) optionally absent) MSRAAQLLPGTWQATFTNEDGQTSQGQWHFQPRSPYTMDIVAQGTISDGRPIVGYGKATVKTPDTLDIDITYPSLGNIKAQGQITMDSPTQFKWDATTKGENDFHGRLTGTLQRQE | 1.0 ± 0.0 | 0.77 ± 0.12 | 8.47 ± 1.99 | 0.0546 ± 0.01 | 3.7 ± 0.56 | pronounced chromophore promiscuity | 0.03 ± 0.01 | 0.04 ± 0.0 | 0.59 ± 0.06 | 0.92 ± 0.05 | Photostability compared to AcGFP1 (fixed COS-7 cells): higher fluorescent signal is retained; Brighter fluorescence than mFAP2b ([1]; low DFHBI concentration (554.88 nM), neutral pH): ~1.3 fold; Absolute quantum yield with DFHBI-1T [8]: 12.9%; Brightness, times dimmer than EGFP ([8]; with DFHBI-1T): ~3.5 fold |
